From article PMC2908503 come the findings set out here.

What all share (assay): NMR titration
Series [1] has as its target MLL CXXC domain WT (human, UniProt Q03164 1147-1203).
Series [2] has as its target MLL CXXC C1188A (human, UniProt Q03164 1147-1203, C1188A).
The target in series [3] is MLL CXXC M1200A (human, UniProt Q03164 1147-1203, M1200A).
Series [4] addresses MLL CXXC L1197A (human, UniProt Q03164 1147-1203, L1197A).
In series [5] the target is MLL CXXC R1150A (human, UniProt Q03164 1147-1203, R1150A).
The target of series [6] is MLL CXXC Q1187A (human, UniProt Q03164 1147-1203, Q1187A).
Chain of MLL CXXC Q1187A (Q03164 1147-1203 Q1187A): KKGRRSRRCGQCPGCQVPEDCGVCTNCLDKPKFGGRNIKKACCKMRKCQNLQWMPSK

Chain of MLL CXXC M1200A (Q03164 1147-1203 M1200A): as the sequence (Q03164 1147-1203 Q1187A) above, with A41Q, M54A counted along it
Chain of MLL CXXC domain WT (Q03164 1147-1203): as the sequence (Q03164 1147-1203 Q1187A) above, with A41Q counted along it
Chain of MLL CXXC C1188A (Q03164 1147-1203 C1188A): as the sequence (Q03164 1147-1203 Q1187A) above, with A41Q, C42A counted along it
Chain of MLL CXXC L1197A (Q03164 1147-1203 L1197A): as the sequence (Q03164 1147-1203 Q1187A) above, with A41Q, L51A counted along it
Chain of MLL CXXC R1150A (Q03164 1147-1203 R1150A): as the sequence (Q03164 1147-1203 Q1187A) above, with R4A, A41Q counted along it

B1: DNApal (dsDNA)
DNA 1: CCCTGCGCAGGG
DNA 2: CCCTGCGCAGGG
As to B1, binding in series [1] was put at a Kd of 44 µM. Further, the binding result in series [2] and in series [3] was “binds” each time. The results for the binding signal in series [4], in series [5] and in series [6] were 4 fold decrease in binding vs WT, 5 fold decrease in binding vs WT and 6 fold higher Kd vs WT, respectively.
